Test results from PMC4072508, “Genome-Wide Prediction and Validation of Peptides That Bind Human Prosurvival Bcl-2 Proteins” (PLoS Computational Biology, 2014).

Target: Bcl-xL, Q07817
Assay: peptide SPOT array, c-Myc-tagged receptor at 1 uM or 100 nM, anti-c-Myc-Cy3

Chain of Bcl-xL, Q07817 (Q07817 1-209): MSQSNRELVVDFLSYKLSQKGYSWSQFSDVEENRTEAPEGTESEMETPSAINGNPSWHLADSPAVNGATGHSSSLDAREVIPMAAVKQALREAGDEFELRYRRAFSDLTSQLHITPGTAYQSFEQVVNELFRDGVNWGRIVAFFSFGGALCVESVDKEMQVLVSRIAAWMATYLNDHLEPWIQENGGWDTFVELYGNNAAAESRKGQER

SPOT signal as a fraction of Bim BH3's signal on the same receptor and array	Binder
0.03	NKELSELIEQLQKNADQVEKNIVDTE [PPL]
0.02	DVNIPDLIKQLDILGDNGNLRNEEQV [JAKMIP2]
0.1	DQEEACASRQLHSLLSFSTVTARRNP [INCA1]
0.91	HRNTRNLAAFLGKASDLLRFPVKQLY
0.03	TERIILFGRELQALSEQLGREYGKNL [RANBP10]
0.29	LGRTGQVCLFLKRGLDQHALDQEQRD [ACAP3]
0.7	FTGNNTAVQELKRVLEQFTATFRRKA [TUBB4Q]
0.05	YGKVKFTAEELSNMASELAKYGLQLP [IQGAP3]
0.43	HPKRKQVTELLLRKLANVNEKNKDFM
0.19	FLRINTIAMRLLAYALDYWSKGQLKA [PANK2]
0.03	NRGYYDVAKQLLAAGAEVNTKGLDDD [ANKRD11]
0.03	DGVLSFIHHQIIELARDCLTKSRDGL [MAST1]
0.03	GPGTLECAELLLRFGARVDGRSEEEE [ASB10]
0.08	KDSVEGICSKIYHISLEYVKRIREKH [PCIF1]
0.58	RAELTGLARRLADRARKLQETNLRAV
0.03	TNISWRACDHDRCIACDFLVVSYDDY [C8orf37]

SPOT signal as a fraction of Bim BH3's signal on the same receptor and array	Binder
0.02	EMNLQDHIESISKVAEVAGKEYAIEQ [DNAH1]
0.03	FERVEQMCIQDKEVGDRVNYIKRSLQ [TRPM7]
0.04	HCQLRSVSQEIHRLSESMAQVYRGST [TDRD6]
0.02	TDENKKVGLADKDLAKQYSDRLECCE [NUB1]
0.08	IQRMGKYALLLQELARACGGPTQELS [PLEKHG4]
0.04	WDEMNVLAHGLLQLGQGLREHAERTR [ANGPTL4]
0.02	TCELREFVKNIDQVSSEVLEGWPDSY [TLR6]
1.2	ELLRLRQHWKDRKVGDKILGDLSYRS [MED17]
0.03	HERCQQPCKRLLICSHKCQEPCIGEC [ZNFX1]
0.04	EVLAGPLAQRDSHIAEDVGRLVKKSR [ARHGAP4]
0.44	PFDCRDYAVVLRKYLDKIYSISMKHP [FOLH1]
0.17	KEDLKGNIDKLRALADDIDKTHKKFT [APOL6]
1.4	HRNTRNLAAFDGKASDLLRFPVKQLY
0.02	SISLTPVAKGLENMGADFLESLEEGQ [SLC28A1]
0.44	GERLRQSGERLRQSGERFKKSISNAA [MURC]

Continued, binder first:

Binder	SPOT signal as a fraction of Bim BH3's signal on the same receptor and array
VFERCELARTDKRLGMDGYRGISLAN [LYZ]	0.22
RMNLQTMVDTLQEAAQEADAIQEEMN [IFFO2]	0.02
EVRSSQFARKLWRSLRRISQVSSGET [NBEAL2]	0.62
AIKPVSFIRDLKKILRHFRFGNQEDA	0.42
DISLSNSGFKLVNFLCDYHQYRDKFS [PION]	0.17
ATKRETAATFLKKVLKEFGFQNNGFS [NPLOC4]	0.48
GHIYLGAVNRIYKLSSDLKVLVTHET [PLXNA4]	0.08
FGTTLKNCRHLLECAKELDVQIIGVK [AZIN1]	0.03
YGRLRPRARSDSKASTAINWLTKKFL [MYO15A]	1.49
PHQFDGVPDKLIQALYQVKYNSKKMK [EVI5]	0.48
FVDINPLTGIILKAAKRFQINIYVKK [SCARB2]	0.16
NGQFLGDALDLQKWAHEVWDIVDIKP [PPIL6]	0.03
VTQLRSLVIDLERTAKELDTNTLKNA [TRIM40]	0.03
GMTMIEICEKLEDCSRKLIKENGLNA [METAP2]	0.03
DLSSTFVSLADRKVGDWPLSARREKG [TTC31]	0.21
NKDGKSVSNRLRRLLDNCGGKVLSIT [KIAA0430]	0.33
RGRTRGWVQTLARMLRRTRGPVERAA [C6orf223]	0.66
HRTSNVLTLSLKRFLNFSGGKITKDV	0.35
LDYHRQAVQILDELAEKLKRRMREAS [SH3GL1]	0.05
DFEARKAAIEIARLAERAQQKTLTSA [C4orf22]	0.04
RAELTGLARRDADRARKLQETNLRAV	0.51
YKGHREIARYLLEQLAQVNRRSAKGN [FEM1A]	0.81
ESEVQHLSQKLYDWSDSQNLKITGKA [ANKRD32]	0.03
HPKRKQVTELDLRKGANVNEKNKDFM	0.38
